# Measured values published in patent US10765761B2, “Nucleic acid condensing peptide, nucleic acid condensing peptide set, nucleic acid delivery carrier, nucleic acid delivery method, cell production method, cell detection method and kit” (KABUSHIKI KAISHA TOSHIBA, priority 2016, dated 2020).
# Legend:
# [1] = system: plasmid vector (pDNA); experiment: Average particle diameter and Zeta potential of peptide-nucleic-acid complexes (zetasizer), Example 1; assay type: physicochemical; settings: for characteristics of condensing the nucleic acid: judged from particle diameter and its dispersion (Table 2, FIGS. 4 and 5)
# Procedure: The condensability of the nucleic acid by the peptide of the embodiment and the potential of the peptide-nucleic-acid complex were evaluated.
# The peptides were each dissolved in 10 mM of HEPES (pH: 5.3) to prepare several peptide solutions having different peptide concentrations.
# For the protamine, three peptide solutions were prepared to have peptide concentrations of: (1) 2.1 mg/ml, (2) 2.4 mg/ml and (3) 2.7 mg/ml. For the mHP-4, four peptide solutions were prepared to have peptide concentrations of: (4) 1.8 mg/ml, (5) 2.1 mg/ml, (6) 2.4 mg/ml and (7) 2.7 mg/ml. For the mHP-1, three peptide solutions were prepared to have peptide concentrations of: (8) 2.1 mg/ml, (9) 2.4 mg/ml and (10) 2.7 mg/ml. For the mHP-2, five peptide solutions were prepared to have peptide concentrations of: (11) 1.2 mg/ml, (12) 1.5 mg/ml, (13) 2.1 mg/ml, (14) 2.4 mg/ml and (15) 2.7 mg/ml. For the mHP-3, three peptide solutions were prepared to have peptide concentrations of: (16) 2.1 mg/ml, (17) 2.4 mg/ml and (18) 2.7 mg/ml. Further, plasmid vector (pDNA) was diluted with purified water to prepare a nucleic acid solution having a pDNA concentration of 3.0 mg/ml.
# 18 sets of nucleic acid solutions (90 μL) put in tubes were prepared and the peptide solutions (1) to (18) (90 μL) described above were dropped respectively therein and mixed while stirring each, to condense the nucleic acids. Thus, the peptide-nucleic-acid complexes were obtained. Then, the mixtures were each diluted with purified water to 25-fold to produce peptide-nucleic-acid solutions. Further, as references, samples containing only each respective peptide were also prepared without adding the nucleic acid solutions thereto.
# The average particle diameter and Zeta potential of each of the peptide-nucleic-acid complexes were investigated using the peptide-nucleic-acid solutions. The average particle diameter and Zeta potential were measured using a zetasizer.
# [2] = Average particle diameter and Zeta potential of liposome (zetasizer), Example 3; assay type: physicochemical
# Procedure: COATSOME/SS-20 (Nippon Oil & Fats), DOPE, cholesterol and DMG-PEG were dissolved into ethanol at a molar ratio of 5:3:1:0.3, to obtain a lipid solution. Two sets of lipid solutions (0.5 ml) put into tubes were prepared, and 0.5 ml of peptide-nucleic-acid solutions (8) (mHP-1) and (16) (mHP-3) of Example 1 were dropped thereto while stirring each lipid solution, thereby forming liposomes. 9 ml of 10 mM-HEPES (pH: 5.3) was added to each of the liposome solutions to make a total amount of 10 ml (each liposome solution will be referred to as “Complex” hereinafter). Further, on an assumption that the liposome is taken into an organism, and liposome solutions (which will be referred to as “HEPES replacement”) in which ethanol, which is the solvent of Complex is substituted by HEPES were produced. The HEPES replacements were produced by condensing each solution of Complex to 1.5 ml with an ultrafiltration film for 300 kDa, adding 8.5 ml of 100 mM-HEPES (pH: 7.4) to each, performing ultrafiltration, thereafter substituting the solvent with 10 mM-HEPES (pH: 7.4), and finally condensing to 0.5 ml. Further, the HEPES replacements were filtered for sterilization with a filter with a pore diameter of 0.45 μm to prepare solutions (which will be referred to as “0.45 μm” hereinafter).
# The “peptide-nucleic-acid solution”, “HEPES substituent” and “0.45 micrometer”, each of which contain the protamine, mHP-1 or mHP-3 prepared as above were examined in terms of average particle diameter of liposome, Zeta potential and amount of encapsulation of plasmid. The average particle diameter and Zeta potential were measured using a zetasizer. The amount of encapsulation of plasmid was measured using a Quant-iT PicoGreen (registered trademark) dsDNA assay kit.
# [3] = system: human normal mammary gland epithelial cells (HMEC); experiment: Transfection of nucleic acid (pAmp-CMV-nLuc) into cells by liposome, luminescence imaging, Example 5; assay type: cell-based; settings: 48 hours after addition of the liposome, NanoLuc (FIG. 10)
# Source text: As nucleic acid to be encapsulated in the liposome, pAmp-CMV-nLuc was used. The pAmp-CMV-nLuc is a reporter vector which contains a NanoLuc gene as the reporter gene. The pAmp-CMV-nLuc includes a CMV promoter as a gene expression promoter, and in its lower stream, a NanoLuc gene, IRES sequence and a replication initiation protein (LT, large T antigen) gene of simian virus 40 (SV40) which are liked in this order, and further, in a lower stream, a replication initiation sequence (SV40 ori) of SV40. Using this nucleic acid, the protamine of Example 3 and the peptides of the mHP-1 and mHP-3, a liposome solution was produced by a method similar to that of Example 3.
# The liposome solution prepared as above was added to human normal mammary gland epithelial cells (HMEC) (Kurabo Industries). The HMEC used here was prepared by reviving from an HMEC freeze stock and thereafter culturing in an incubator of a 5%-CO2 atmosphere at 37 degrees Celsius for six to seven days. […]
# 48 hours after the addition of the liposome, a luminescence substrate (Nano-Glo Luciferase Assay Substrate and Promega) was added to the culture medium to dilute to 1/2000. This culture dish was set to LV200 (a luminescence imaging system of Olympus) and photographed. […]
# [4] = pDNA/peptide 1/0.7 (peptide conc. 2.1 mg/mL)
# [5] = pDNA/peptide 1/0.8 (peptide conc. 2.4 mg/mL)
# [6] = pDNA/peptide 1/0.9 (peptide conc. 2.7 mg/mL)
# [7] = peptide solely, no nucleic acid (Reference)
Sequence,characteristics of condensing the nucleic acid [1],"Average particle diameter (zAve) [1, 4] [nm]","Zeta potential [1, 4] [mV]","Average particle diameter (zAve) [1, 5] [nm]","Zeta potential [1, 5] [mV]","Average particle diameter (zAve) [1, 6] [nm]","Zeta potential [1, 6] [mV]","Average particle diameter (zAve) [1, 7] [nm]","Zeta potential [1, 7] [mV]",Average particle diameter (zAve) ([2]; Peptide-nucleic acid solution) [nm],Zeta potential ([2]; Peptide-nucleic acid solution) [mV],"Average particle diameter (zAve) ([2]; liposome, 0.45 μm filtered) [nm]","Zeta potential ([2]; liposome, 0.45 μm filtered) [mV]","Average particle diameter (zAve) ([2]; liposome, HEPES substitution) [nm]","Zeta potential ([2]; liposome, HEPES substitution) [mV]",luminescent cells (reporter gene expressed) [3]
RQRQRGGRRRRRR (Nucleic acid condensing peptide) [mHP-3],excellent,135.8,−28.1,134.9,−25.9,148.2,−28.3,322.9,17.0,113.4,−43.90,218.2,−2.95,240.5,−3.39,luminescence was observed in more cells than those of the sample which used the protamine
RQRQRYYRQRQRGGRRRRRR (Nucleic acid condensing peptide) [mHP-1],excellent,124.0,−28.2,133.4,−26.7,158.0,−25.5,444.0,37.2,121.4,−44.50,222.0,−5.26,254.1,−11.30,luminescence was observed in most cells
